24 molecules from article PMC12377726 (Proceedings of the National Academy of Sciences of the …, 2025) can be followed below.

The chains are these.
B1: G001_gp1_V08_VRC01c_131 (antibody, V domains shown)
VH: QVQLVQSGAEVKKPGASVKVSCKASGYTFTDYYIYWLRQAPGHGLEWMGWINPNSGGTNYAQKFQDWVTMTRDTSISTAYMELSRLSSDDTAVYYCARRNDYLGGSYRYSAFDIWGQGTMVTVSS
VL: EIVLTQSPGTLSLSPGERATLSCRASQKVSSRYLAWYQQKPGQAPRLLIYGASSRATGIPDRFSGSGSGTDFTLTISRLEPEDFAVYYCQQYETFGQGTKLEIK
B2: G001_gp1_V08_VRC01c_145 (antibody, V domains shown)
VH: QVQLVQSGAEVKKPGASVKVSCRASGYTFTAYYIHWVRQAPGQGLEWMGWINPNSGGTNYAQKFQGRVTMTRDTSISTAYMELRRLRSDDTAVYYCARRFVSSGYYYAYWGQGTLVTVSS
VL: B1 VL with K28S, R32S, I49F, V86I, Q91H, L101V
B3: G001_gp1_V08_VRC01c_139 (antibody, V domains shown)
VH: QVQLVQSGAEVKKPGASVKVSCKASGYTFTGSYMHWVRQAPGQGLEWMGWINPNSGGTNYAQKFQGRVTLTRDTSISTAYMELTRLRSDDTTVFYCATSRSGDWYFDLWGRGTLVTVSS
VL: B1 VL with K28S, V29A, R32S, V86M
B4: G001_gp1_V08_VRC01c_133 (antibody, V domains shown)
VH: QVQLVQSGAEVKKPGASVKVSCKASGYTFTDYYLHWVRQAPGQGLEWMGWINPNSGGTNYARKFQDWVTMTRDTSISTAYMELSRLRSDDTAVYYCARGKTTVSWYFEYWAQGTLVTVSS
VL: B1 VL with K28S, R32S, F84S, L101V
B5: G001_gp1_V08_VRC01c_151 (antibody, V domains shown)
VH: QVQLVQSGAEVKKPGASVKVSCKASGYTFTDYYMHWVRQTPGQGLEWMGWMNPKSGGTNYALQFQGRVTMTRDTSISTAYMELSRLRSDDTAIYYCATKAYTNRAFDIWGQGTMVTVSS
VL: B1 VL with K28S, S30N, R32N, Y33S, Y50F, G51A, S53Y, S54T, E93D, L101V
B6: G001_gp1_V08_VRC01c_158 (antibody, V domains shown)
VH: QVQLVQSGAEVKKPGASVKVSCKASGYTFTDYYMHWVRQAPGQGLEWMGWLNPNSGGTNYAQKFQDWVTMTRDTSIRTAYLELSRLKLDDTAIYYCARRIDYLDAFDIWGQGTMVTVSS
VL: B1 VL with K28S, S31R, P41T, T94M, L101V
B7: G001_gp1_V08_VRC01c_134 (antibody, V domains shown)
VH: QVQLVQSGAEVKKPGASVKVSCKASGYTFTDYYMHWVRQAPGQGLEWMGWINPNSGGTNYAQKFQGWVTMTRDTSISTAYMELSRLTSDDTAVYYCATSIKATNYNWNFDLWGRGTLVTVSS
VL: EIVLTQSPGTLSLSPGERATLSCRASQSVTSNLAWYQQKPGQAPRLLIYGASSRATGIPDRFSGSGSGTDFTLTISRLEPEDFAVYYCQQYESFGQGTKLEIK
B8: G001_gp1_V08_VRC01c_143 (antibody, V domains shown)
VH: QVQLVQSGAEVRKPGASVKVSCKASGFTFSDYYIHWVRQAPGQGLEWMGWINPNSGGTNYARKFQGRVTMTRDRSISTAYMELSRLRSDDTAVYYCARGLHTSGWYFAFWGQGTLVTVSS
VL: DIQMTQSPSSLSASVGDRVTITCQARQDTSNYLHWYQQKPGKAPKLLIYDASKLEPGVPSRFSGSGSGTDFTFTISNLQPEDIGTYYCQQYEAFGGGTKVEIK
B9: G001_gp1_V08_VRC01c_2021-0055 (antibody, V domains shown)
VH: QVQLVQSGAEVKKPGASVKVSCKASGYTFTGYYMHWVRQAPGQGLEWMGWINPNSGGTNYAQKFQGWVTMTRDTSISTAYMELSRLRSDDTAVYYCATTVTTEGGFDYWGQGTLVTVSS
VL: QSALTQPPSASGSPGQSVTISCTGTSSDVGGYNYVSWYQQHPGKAPKLMIYEVSKRPSGVPDRFSGSKSGNTASLTVSGLQAEDEADYYCSSYEVFGTGTKVTVL
B10: G001_gp1_V08_VRC01c_2021-0056 (antibody, V domains shown)
VH: QVQLVQSGAEVKKPGASVTVSCKASGYTFTGYYMHWVRQAPGQGLEWMGWINPNSGGTNYAQKFQDWVTMTRDTSISTAYMELSRLRSDDTAVYYCATALGGSPGRIWSMDVWGQGTTVTVSS
VL: B9 VL with P8A, A10V, V18I, Y32S, M49L, E52D, K55N, P61S, D62S, V77I
B11: G001_gp1_V08_VRC01c_142 (antibody, V domains shown)
VH: QVQLVQSGAEVKKPGASVKVSCKASGYTFTGDYMHWVRQAPGQGLEWMGWINPNSGGTNYAQKFQGWVTMTRDTSISTAYMEVRLRSDDTAVYYCARAGYSSSWGFGFWGQGTLVTVSS
VL: QSVLTQPPSVSGAPGERVTISCTGSSSNIGAGYDVHWYQQLPGTAPKLLIFGTSNRPSGVPDRFSGSKSGTSASLAITGLQAEDEADYYCQSYEFFGGGTKLTVL
B12: G001_gp1_V08_VRC01c_136 (antibody, V domains shown)
VH: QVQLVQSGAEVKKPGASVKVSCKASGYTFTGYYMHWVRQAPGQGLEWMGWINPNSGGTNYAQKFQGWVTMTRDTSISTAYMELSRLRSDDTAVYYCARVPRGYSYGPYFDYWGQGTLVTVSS
VL: EIVMTQSPATLSVSPGERATLSCRASQSVSSNLAWYQQKPGQAPRLLIYGASTRATGIPARFSGSGSGTEFTLTISSLQSEDFAVYYCQQYSTFGGGTKVEIK
B13: G001_gp1_V08_VRC01c_149 (antibody, V domains shown)
VH: QVQLVQSGAEVKKPGASVKVSCKTSGYTFTDYYMHWVRQAPGQGLEWMGWINPNSGGTNYAQKFQGRVTMTRDTSIRTVYMELSWLRSDDTAVFYCARHYRSSGWDFDYWGQGTLVTVSS
VL: DIVLTQSPDSLTVSLGERATINCKSSPSGLYSSNNKNYLTWYQQKPGQPPKLLIYWASTRESGVPDRFSGSGSGTDFTLTISSLQAEDVAVYYCQQYETFGGGTKVEIK
B14: G001_gp1_V08_VRC01c_138 (antibody, V domains shown)
VH: QVQLVQSGAEVKKPGASVKVSCKASGYTFTDYYMYWVRQAPGQGLEWMGWINPNSGGTNYAQKFQGRVTMTRDTSISTAYMELSGLRSDDTAVYYCARRPNPYSGYDSNAFDIWGQGTMVTVSS
VL: DIQMTQSPSTLSASVGDRVTITCRASQSISSWLAWYQQKPGKAPKLLIYKASSLESGVPSRFSGSGSGTEFTLTISSLQPDDSATYYCQQYETFGQGTKVEIK
B15: G001_gp1_V08_VRC01c_140 (antibody, V domains shown)
VH: QVQLVQSGAEVKMPGTSVKVSCKASGYTFTDYYMHWVRQAPGQGLEWMGWINPNSGGTNYEQRFQGRVTMTRDTSISTAYMDLRRLRSDDTAVYYCATSLVETSTHWAFDLWGQGTMVTVSS
VL: B14 VL with I2F, A25T, I29F, S31T, K50E, E55Q, S83L, E101A
B16: G001_gp1_V08_VRC01c_146 (antibody, V domains shown)
VH: B14 VH with S77T, L83V, S84R, G85R, V93M, S108F
VL: B14 VL with S31N, A51T, S53N, S56G, S83L, T93M
B17: G001_gp1_V08_VRC01c_141 (antibody, V domains shown)
VH: QVQLVQSGAEVKKPGASVKVSCKASGYSFTDYYMHWVRQAPGQGLEWMGWINPNSGGSNYAQKFQGRVTMTRDSFISTAYMELSRLRSDDTAVYYCAYYDSGTYRYWGQGTLVTVSS
VL: B14 VL with Y36F, S83F
B18: G001_gp1_V08_VRC01c_132 (antibody, V domains shown)
VH: QVQLVQSGAEVKKPGASVKVSCKASGYTFSGYYMHWVRQAPGQGLEWMGWINPNSGGTNYAQKFQGWVTMTRDTSISTAYMELSRLKSDDTAVYYCARVEHTSGWCFDSWGQGTLVTVSS
VL: DIQMTQSPSSLSASVGDRVTITCQASQDISNYLNWYQQKPGKAPKLLISDASNLETGVPSRFSGSGSGTDFTFTISSLQPEDIATYYCQQYDIFGPGTKVEIK
B19: G001_gp1_V08_VRC01c_144 (antibody, V domains shown)
VH: QVQLVQSGAEVKKPGASVKVSCKASGYTFSGHYMHWVRQAPGQGLEWMGWINPNSGGTNYAQKFQGRVTMTRDTSISSAYMELSRLRSDDTAVYYCATHTGSGSSWSFDSWGQGTLVTVSS
VL: B18 VL with S49Y, D92E, I93Y, P96Q, K99R, V100L
B20: G001_gp1_V08_VRC01c_135 (antibody, V domains shown)
VH: QVQLVQSGAEVKKPGASVKVSCKASGYIFTGYYMHWVRQAPGQGLEWMGWINPNSGGTNYAQKFQGWVTMTRDTSISTAYMELSRLRSDDTAVYYCASSVGVPAARGWAFDMWGQGTMVTVSS
VL: B18 VL with S49Y, N53D, I93L, E101D
B21: G001_gp1_V08_VRC01c_2021-0053 (antibody, V domains shown)
VH: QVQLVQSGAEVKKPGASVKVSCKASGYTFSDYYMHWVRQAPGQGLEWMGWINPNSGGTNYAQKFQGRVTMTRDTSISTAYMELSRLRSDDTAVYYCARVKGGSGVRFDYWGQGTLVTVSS
VL: B18 VL with S49Y, P59T, D92V, I93T, P96G
B22: G001_gp1_V08_VRC01c_147 (antibody, V domains shown)
VH: QVQLVQSGAEVKQPGASVKVSCKASGYTFTGYYIHWIRQAPGQGLEWMGWINPKSGGTNYARNFQGRVTMTRDTSISTSYLLLSRLRSDDTAVYYCFRGAEGWLLKYWGQGTLVTVSS
VL: B18 VL with S49Y, Y87F, Q90H, D92E, I93F, E101D
B23: G001_gp1_V08_VRC01c_153 (antibody, V domains shown)
VH: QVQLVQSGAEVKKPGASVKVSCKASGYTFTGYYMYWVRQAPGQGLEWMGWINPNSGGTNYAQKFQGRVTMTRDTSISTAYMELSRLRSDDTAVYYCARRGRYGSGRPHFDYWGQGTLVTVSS
VL: B18 VL with S26T, Q38H, S49Y, N53T, E55V, S67Y, Q90E, D92L, I93L, P96G
B24: G001_gp1_V08_VRC01c_2021-0052 (antibody, V domains shown)
VH: QVQLVQSGAEVKKPGASVKVSCKASGHTFSGYYMHWVRQAPGQGLEWMGWINPNSGGTNYAQKFQGRVTMTRDTSISTAYMELSRLRTYDTAVYYCARAYSSGWRFGWGQGTMVTVSS
VL: B18 VL with S30T, N31K, K42Q, S49Y, D70Y, I93N, P96G

Numbering of substitutions follows the chain as printed.

This assay has as its target eOD-GT8 (engineered outer domain germline-targeting version 8), monomer (HIV-1 gp120 engineered outer domain, …).
Turning to B1, the binding result was “binds”. Take B2: the binding result is “binds”. In the case of B3, the binding result is recorded as “binds”.

On to B4, for which the binding result was “binds”. Take B5: the binding result is listed as “binds”. Consider B6, for which the binding result was “binds”.

In the case of B7, the binding result is on record as “binds”. As for B8, the binding result was “binds”. As to B9, the binding result was “binds”. The result for B10 reads “binds”; that for B11, “binds”. On to B12, for which the binding result is reported as “binds”. B13: the binding result is given as “binds”. B14: the binding result is reported as “binds”. Then B15, with “binds”. B16: the binding result is “binds”. As to B17, the binding result was “binds”.

Regarding B18, the binding result was “binds”. Turning to B19, the binding result is “binds”. Turning to B20, the binding result was “binds”. Take B21: the binding result is “binds”.

For the molecule B22, the binding result is reported as “binds”. As to B23, the binding result is reported as “binds”. In the case of B24, the binding result is recorded as “binds”.
